Source: US20230220042A1 (SHANGHAI JIAO TONG UNIVERSITY SCHOOL OF MEDICINE, published 2023)

T1: Biotin-FcγRIIB (human, UniProt P31994 43-217, limits assumed, biotin label)
T1 construct: Soluble labelled protein used to stain and sort the display cells; also called human FcγRIIB; CD32b
T1 sequence (looked up): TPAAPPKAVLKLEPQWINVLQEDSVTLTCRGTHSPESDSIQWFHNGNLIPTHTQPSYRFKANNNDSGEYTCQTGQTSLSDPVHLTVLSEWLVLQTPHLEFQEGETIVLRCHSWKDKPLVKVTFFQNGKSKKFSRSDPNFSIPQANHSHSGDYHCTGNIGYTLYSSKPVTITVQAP

T2: Biotin-FcγRIIB (human FcγRIIB, Sino Biological) (human, UniProt P31994 43-217, limits assumed, biotin-labeled)
T2 construct: Used at 1 µg/ml with Streptavidin-APC for flow cytometry and sorting; also called CD32b
T2 sequence (looked up): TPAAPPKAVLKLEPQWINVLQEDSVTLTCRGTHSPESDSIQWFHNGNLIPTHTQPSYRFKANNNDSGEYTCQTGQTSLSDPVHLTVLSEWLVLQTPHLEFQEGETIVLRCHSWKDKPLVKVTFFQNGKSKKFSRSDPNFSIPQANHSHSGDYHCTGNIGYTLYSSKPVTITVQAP


Assays:
Biotin-FcγRIIB = target: T1, Biotin-FcγRIIB; experiment: NGS of 3T3 display library C2 flow-sorted for FcγRIIB binding
[1] = target: T2, Biotin-FcγRIIB (human FcγRIIB, Sino …); experiment: NGS after FACS sort of 3T3-displayed LibraryMix for biotin-FcγRIIB binding

enrichment factor, percentage after 1st sorting/percentage before sorting (Biotin-FcγRIIB) [ratio]	enrichment factor, percentage after 2nd sorting/percentage after 1st sorting (Biotin-FcγRIIB) [ratio]	enrichment factor, percentage after 3rd sorting/percentage after 2nd sorting (Biotin-FcγRIIB) [ratio]	enrichment factor, percentage after 3rd sorting/percentage before sorting (Biotin-FcγRIIB) [ratio]	increased factor, mutant enrichment factor/wild-type enrichment factor (Biotin-FcγRIIB) [ratio]	percentage after 1st sorting (Biotin-FcγRIIB) [%]	percentage after 2nd sorting (Biotin-FcγRIIB) [%]	percentage after 3rd sorting (Biotin-FcγRIIB) [%]	percentage before sorting (Biotin-FcγRIIB) [%]	Enrichment factor (percentage after sorting/percentage before sorting) [1]	Increased factor (enrichment factor/wild-type enrichment factor) [1]	Binder
229	6.6	0.78	1180	844	2.59	17.1	13.3	0.01			human IgG2 anti-mouse CD40 surface displayed antibody, V266L/S267M/H268E/P271Q (antibody, name in EU numbering, As m1 with the Fc mutations) light chain (with the P2A rest): DTVLTQSPALAVSPGERVTISCRASDSVSTLMHWYQQKPGQQPKLLIYLASHLESGVPARFSGSGSGTDFTLTIDPVEADDTATYYCQQSWNDPWTFGGGTKLELKRTVAAPSVFIFPPSDEQLKSGTASVVCLLNNFYPREAKVQWKVDNALQSGNSQESVTEQDSKDSTYSLSSTLTLSKADYEKHKVYACEVTHQGLSSPVTKSFNRGECGSGATNFSLLKQAGDVEENPG heavy chain: EVQLVESDGGLVQPGRSLKLPCAASGFTFSDYYMAWVRQAPTKGLEWVASISYDGSSTYYRDSVKGRFTISRDNAKSTLYLQMDSLRSEDTATYYCGRHSSYFDYWGQGVMVTVSSASTKGPSVFPLAPCSRSTSESTAALGCLVKDYFPEPVTVSWNSGALTSGVHTFPAVLQSSGLYSLSSVVTVPSSNFGTQTYTCNVDHKPSNTKVDKTVERKCCVECPPCPAPPVAGPSVFLFPPKPKDTLMISRTPEVTCVVVDLMEEDQEVQFNWYVDGVEVHNAKTKPREEQFNSTFRVVSVLTVVHQDWLNGKEYKCKVSNKGLPAPIEKTISKTKGQPREPQVYTLPPSREEMTKNQVSLTCLVKGFYPSDIAVEWESNGQPENNYKTTPPMLDSDGSFFLYSKLTVDKSRWQQGNVFSCSVMHEALHNHYTQKSLSLSPGKLEPPPSTVSNMATVAVLVVLGAAIVTGAVVAFVMKMRRRNTGGKGGDYALAPGSQTSDLSLPDCKVMVHDPHSLA
99.9	12.8	1.95	2500	1780	0.17	2.13	4.15	0			human IgG2 anti-mouse CD40 surface displayed antibody, V266L/S267E/H268S/E269V (antibody, name in EU numbering, As m1 with the Fc mutations) light chain (with the P2A rest): DTVLTQSPALAVSPGERVTISCRASDSVSTLMHWYQQKPGQQPKLLIYLASHLESGVPARFSGSGSGTDFTLTIDPVEADDTATYYCQQSWNDPWTFGGGTKLELKRTVAAPSVFIFPPSDEQLKSGTASVVCLLNNFYPREAKVQWKVDNALQSGNSQESVTEQDSKDSTYSLSSTLTLSKADYEKHKVYACEVTHQGLSSPVTKSFNRGECGSGATNFSLLKQAGDVEENPG heavy chain: EVQLVESDGGLVQPGRSLKLPCAASGFTFSDYYMAWVRQAPTKGLEWVASISYDGSSTYYRDSVKGRFTISRDNAKSTLYLQMDSLRSEDTATYYCGRHSSYFDYWGQGVMVTVSSASTKGPSVFPLAPCSRSTSESTAALGCLVKDYFPEPVTVSWNSGALTSGVHTFPAVLQSSGLYSLSSVVTVPSSNFGTQTYTCNVDHKPSNTKVDKTVERKCCVECPPCPAPPVAGPSVFLFPPKPKDTLMISRTPEVTCVVVDLESVDPEVQFNWYVDGVEVHNAKTKPREEQFNSTFRVVSVLTVVHQDWLNGKEYKCKVSNKGLPAPIEKTISKTKGQPREPQVYTLPPSREEMTKNQVSLTCLVKGFYPSDIAVEWESNGQPENNYKTTPPMLDSDGSFFLYSKLTVDKSRWQQGNVFSCSVMHEALHNHYTQKSLSLSPGKLEPPPSTVSNMATVAVLVVLGAAIVTGAVVAFVMKMRRRNTGGKGGDYALAPGSQTSDLSLPDCKVMVHDPHSLA
									24.9	33.3	human IgG2 anti-mouse CD40 surface displayed antibody, L328M (antibody, name in EU numbering, m1 with this Fc mutation (Eu numbering); copies: 2 + 2) light chain (with the P2A rest): DTVLTQSPALAVSPGERVTISCRASDSVSTLMHWYQQKPGQQPKLLIYLASHLESGVPARFSGSGSGTDFTLTIDPVEADDTATYYCQQSWNDPWTFGGGTKLELKRTVAAPSVFIFPPSDEQLKSGTASVVCLLNNFYPREAKVQWKVDNALQSGNSQESVTEQDSKDSTYSLSSTLTLSKADYEKHKVYACEVTHQGLSSPVTKSFNRGECGSGATNFSLLKQAGDVEENPG heavy chain: EVQLVESDGGLVQPGRSLKLPCAASGFTFSDYYMAWVRQAPTKGLEWVASISYDGSSTYYRDSVKGRFTISRDNAKSTLYLQMDSLRSEDTATYYCGRHSSYFDYWGQGVMVTVSSASTKGPSVFPLAPCSRSTSESTAALGCLVKDYFPEPVTVSWNSGALTSGVHTFPAVLQSSGLYSLSSVVTVPSSNFGTQTYTCNVDHKPSNTKVDKTVERKCCVECPPCPAPPVAGPSVFLFPPKPKDTLMISRTPEVTCVVVDVSHEDPEVQFNWYVDGVEVHNAKTKPREEQFNSTFRVVSVLTVVHQDWLNGKEYKCKVSNKGMPAPIEKTISKTKGQPREPQVYTLPPSREEMTKNQVSLTCLVKGFYPSDIAVEWESNGQPENNYKTTPPMLDSDGSFFLYSKLTVDKSRWQQGNVFSCSVMHEALHNHYTQKSLSLSPGKLEPPPSTVSNMATVAVLVVLGAAIVTGAVVAFVMKMRRRNTGGKGGDYALAPGSQTSDLSLPDCKVMVHDPHSLA
